Measured values as given in the supplement of paper PMC7125110.
± gives the standard error. For some of these results: Fewer inactive variants are shown than the library holds.

B1: glmS ribozyme (parent)
chain: AUAAAAGCGCCAGAACUACAGAAAUGUAGUUGACGAGGAGGAGGUUUAUCGAAUUUUCGGCGGAUGCCUCCAAA

Key:
Conditions in all cases: with glucosamine-6-phosphate
[1] = variants of: B1; test: kcat; higher = faster cleavage; RNA array
Procedure, shortened: (§1)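 A hybridised Cy3 probe tracked barcoded ribozyme variants, transcribed in situ by E. coli RNA polymerase on sequenced MiSeq chips, at 37 °C. The variants received 40 μM to 10 mM glucosamine-6-phosphate in HEPES/KCl/Mg(OAc)2 buffer. kobs came from decay fits and kcat and KM from weighted Michaelis–Menten fits.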

[2] = variants of: B1; test: KM; higher = weaker cofactor use; RNA array
Procedure, shortened: as §1

[3] = variants of: B1; test: self-cleavage kobs at 160 uM GlcN6P; higher = faster cleavage; RNA array
Procedure, shortened: as §1

[4] = variants of: B1; test: self-cleavage kobs at 640 uM GlcN6P; higher = faster cleavage; RNA array
Procedure, shortened: as §1

[5] = variants of: B1; test: self-cleavage kobs at 2500 uM GlcN6P; higher = faster cleavage; RNA array
Procedure, shortened: as §1

[6] = variants of: B1; test: self-cleavage kobs at 10000 uM GlcN6P; higher = faster cleavage; RNA array
Procedure, shortened: as §1

[7] = variants of: B1; test: self-cleavage kobs at 40 uM GlcN6P; higher = faster cleavage; RNA array
Procedure, shortened: as §1

Variant	kcat [1]	KM [2]	self-cleavage kobs at 160 uM GlcN6P [3]	self-cleavage kobs at 640 uM GlcN6P [4]	self-cleavage kobs at 2500 uM GlcN6P [5]	self-cleavage kobs at 10000 uM GlcN6P [6]	self-cleavage kobs at 40 uM GlcN6P [7]
C11U C67A	0.000277 ± 2.6e-05 s⁻¹	801 ± 180 µM	4.36e-05 ± 1.8e-05 s⁻¹	0.000121 ± 1.3e-05 s⁻¹	0.000256 ± 4e-05 s⁻¹	0.000242 ± 3e-05 s⁻¹	–
C10U A36U	< 1e-05 s⁻¹	–	< 1e-05 s⁻¹	–	–	< 1e-05 s⁻¹	< 1e-05 s⁻¹
C11U U55G C70G	9.32e-05 ± 8.6e-06 s⁻¹	–	–	7.75e-05 ± 2.5e-05 s⁻¹	–	8.94e-05 ± 1.7e-05 s⁻¹	–
G7A U45A	3.18e-05 ± 3.1e-06 s⁻¹	–	–	–	–	2.85e-05 ± 1.2e-05 s⁻¹	–
A12G A15C	0.000514 ± 0.00013 s⁻¹	–	–	–	7.79e-05 ± 1e-05 s⁻¹	0.000205 ± 2.2e-05 s⁻¹	–
G7U G51A G62A C70U	1.17e-05 ± 2.6e-06 s⁻¹	–	–	–	–	–	–
G7A U69A	1.56e-05 ± 3.6e-06 s⁻¹	–	–	–	–	–	–
A12G A53U C67U	0.000372 ± 8.2e-05 s⁻¹	6210 ± 2000 µM	–	–	0.00011 ± 1.7e-05 s⁻¹	0.00022 ± 7.2e-05 s⁻¹	–
A12U A52U	0.00174 ± 0.00012 s⁻¹	4090 ± 490 µM	7.11e-05 ± 2e-05 s⁻¹	0.000233 ± 3.8e-05 s⁻¹	0.000681 ± 9.8e-05 s⁻¹	0.00123 ± 0.00011 s⁻¹	–
C11U A53U	0.00137 ± 0.0004 s⁻¹	–	0.000141 ± 3.8e-05 s⁻¹	–	0.000587 ± 0.00017 s⁻¹	0.00125 ± 0.00023 s⁻¹	–
C11G G59U C68A	1.43e-05 ± 2.1e-06 s⁻¹	–	–	–	–	–	–
G7U U55A	< 1e-05 s⁻¹	–	< 1e-05 s⁻¹	< 1e-05 s⁻¹	< 1e-05 s⁻¹	–	–
A12U U31C U47G	0.00222 ± 0.00076 s⁻¹	5110 ± 2400 µM	8.69e-05 ± 1.9e-05 s⁻¹	0.000212 ± 4.5e-05 s⁻¹	0.000645 ± 0.00015 s⁻¹	0.00156 ± 0.00026 s⁻¹	4.15e-05 ± 1.7e-05 s⁻¹
C11G	< 1e-05 s⁻¹	665 ± 260 µM	–	–	–	< 1e-05 s⁻¹	< 1e-05 s⁻¹
C11A	0.000291 ± 2.1e-05 s⁻¹	2280 ± 280 µM	2.39e-05 ± 2.4e-06 s⁻¹	6.25e-05 ± 1.7e-06 s⁻¹	0.000153 ± 3.1e-06 s⁻¹	0.000236 ± 1.4e-05 s⁻¹	< 1e-05 s⁻¹
C11U	0.00338 ± 0.00074 s⁻¹	1800 ± 450 µM	0.000216 ± 7.8e-06 s⁻¹	0.000837 ± 8.1e-05 s⁻¹	0.00508 ± 0.0016 s⁻¹	0.00293 ± 9.8e-05 s⁻¹	8.01e-05 ± 1.4e-06 s⁻¹
A6U C50G A52U C61G C68U	3.87e-05 ± 1.1e-05 s⁻¹	–	–	–	–	4.51e-05 ± 1.6e-05 s⁻¹	–
A12U G44U	0.000852 ± 0.00012 s⁻¹	1290 ± 350 µM	7.54e-05 ± 1.9e-05 s⁻¹	0.000264 ± 4.7e-05 s⁻¹	0.000645 ± 0.0001 s⁻¹	0.000739 ± 8e-05 s⁻¹	3.83e-05 ± 8.2e-06 s⁻¹
